Our source for the stoichiometry N values is publication PMC3365889.

For assay [1], the target named is T1, human synaptogyrin 1, transcript variant 1b, construct 5 (N-terminal His tag with TEV cleavage site) (human), O43759.
T1 chain: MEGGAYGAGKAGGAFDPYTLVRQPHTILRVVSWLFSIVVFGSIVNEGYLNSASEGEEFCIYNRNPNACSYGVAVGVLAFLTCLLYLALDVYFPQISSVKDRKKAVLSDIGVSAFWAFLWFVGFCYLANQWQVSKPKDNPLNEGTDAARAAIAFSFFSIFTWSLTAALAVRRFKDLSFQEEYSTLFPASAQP
In words: cross-linking; crude E. coli membranes, 2 mM DMS, room temperature, quenched with 200 mM Tris at time points; SDS-PAGE and Western blot with His probe. On the technique in general: In western blotting, separated proteins are transferred to a membrane and probed.

In assay [2] the target is T1, human synaptogyrin 1, transcript …. Put plainly: cross-linking; Triton X-100-solubilised and purified synaptogyrin 1, 1 mM glutaraldehyde, room temperature, quenched with 200 mM Tris at time points; SDS-PAGE and Western blot with His probe.
The target is the same in assay [3]. Put plainly: cross-linking; DDM-solubilised and purified synaptogyrin 1, 0.25 mM DSS, room temperature, quenched with 200 mM Tris at time points; SDS-PAGE and Western blot with His probe.
The target is the same in assay [4]. In words: SDS-PAGE (SDS-resistant dimer); SDS-PAGE of fractions from the large-scale IMAC purification in DDM.

B1: human synaptogyrin 1, transcript variant 1b, construct 5 (N-terminal His tag with TEV cleavage site), O43759-2 1-191 (natural protein)
chain: T1 chain
As to B1, the stoichiometry N (commonly a count of units in the complex or per binding partner) is more than 4 in assay [1], more than 4 in assay [2], more than 4 in assay [3] and 2 in assay [4].
